PMC3534962

Assays:
[1] = co-immunoprecipitation with Flag-PFK1; conditions: glycan gained; control: WT Flag-PFK1 without OGT overexpression
[2] = native gel electrophoresis of immunopurified Flag-PFK1; conditions: glycan gained; control: Flag-PFK1 from untreated 293T cells
[3] = 14CO2 release from [1-14C]- vs [6-14C]-glucose; conditions: glycan lost; control: WT PFK1 H1299 knock-in cells
[4] = untargeted flow-injection mass spectrometry metabolite profiling; conditions: glycan lost; control: WT PFK1 H1299 knock-in cells
[5] = monochlorobimane fluorimetric GSH assay; conditions: glycan lost; control: WT PFK1 H1299 knock-in cells
[6] = proliferation with and without OGT overexpression; conditions: glycan lost; control: WT PFK1 H1299 knock-in cells, hypoxia
[7] = GSH level under hypoxic conditions; conditions: glycan lost; control: WT PFK1 H1299 knock-in cells, hypoxia
[8] = glycolytic rate with and without OGT overexpression; conditions: glycan lost; control: WT PFK1 H1299 knock-in cells
[9] = NADPH level under hypoxic conditions; conditions: glycan lost; control: WT PFK1 H1299 knock-in cells, hypoxia
[10] = [1,2-13C]-glucose labelling, LC-MS; conditions: glycan lost; control: WT PFK1 H1299 knock-in cells
[11] = co-immunoprecipitation after OGT overexpression; conditions: glycan lost; control: WT Flag-PFK1
[12] = colorimetric NADPH assay; conditions: glycan lost; control: WT PFK1 H1299 knock-in cells
[13] = lactate production with and without OGT overexpression; conditions: glycan lost; control: WT PFK1 H1299 knock-in cells

Protein | oligomerisation [1] | oligomerisation [2] | other: OGT-induced increase in PPP flux [3] | other: steady-state metabolite concentrations [4] | other: OGT-induced increase in GSH, fold_change [5] | other: OGT-induced increase in proliferation [6] | other: cellular GSH level [7] | other: OGT-induced decrease in glycolytic rate, other: percent decrease [8] | other: cellular NADPH level [9] | other: OGT-induced increase in PPP flux, fold_change [10] | other: OGT-induced loss of subunit co-immunoprecipitation [11] | other: OGT-induced increase in NADPH, fold_change [12] | other: OGT-induced decrease in lactate production, other: percent decrease [13]
phosphofructokinase 1 (PFK1): OGT overexpression (protein) parent chain: MAAVDLEKLRASGAGKAIGVLTSGGDAQGMNAAVRAVTRMGIYVGAKVFLIYEGYEGLVEGGENIKQANWLSVSNIIQLGGTIIGSARCKAFTTREGRRAAAYNLVQHGITNLCVIGGDGSLTGANIFRSEWGSLLEELVAEGKISETTARTYSHLNIAGLVGSIDNDFCGTDMTIGTDSALHRIMEVIDAITTTAQSHQRTFVLEVMGRHCGYLALVSALASGADWLFIPEAPPEDGWENFMCERLGETRSRGSRLNIIIIAEGAIDRNGKPISSSYVKDLVVQRLGFDTRVTVLGHVQRGGTPSAFDRILSSKMGMEAVMALLEATPDTPACVVTLSGNQSVRLPLMECVQMTKEVQKAMDDKRFDEATQLRGGSFENNWNIYKLLAHQKPPKEKSNFSLAILNVGAPAAGMNAAVRSAVRTGISHGHTVYVVHDGFEGLAKGQVQEVGWHDVAGWLGRGGSMLGTKRTLPKGQLESIVENIRIYGIHALLVVGGFEAYEGVLQLVEARGRYEELCIVMCVIPATISNNVPGTDFSLGSDTAVNAAMESCDRIKQSASGTKRRVFIVETMGGYCGYLATVTGIAVGADAAYVFEDPFNIHDLKVNVEHMTEKMKTDIQRGLVLRNEKCHDYYTTEFLYNLYSSEGKGVFDCRTNVLGHLQQGGAPTPFDRNYGTKLGVKAMLWLSEKLREVYRKGRVFANAPDSACVIGLKKKAVAFSPVTELKKDTDFEHRMPREQWWLSLRLMLKMLAQYRISMAAYVSGELEHVTRRTLSMDKGF | decreases | decreases |  |  |  |  |  |  |  |  |  |  | 
phosphofructokinase 1 (PFK1): PUGNAc (protein) parent chain: MAAVDLEKLRASGAGKAIGVLTSGGDAQGMNAAVRAVTRMGIYVGAKVFLIYEGYEGLVEGGENIKQANWLSVSNIIQLGGTIIGSARCKAFTTREGRRAAAYNLVQHGITNLCVIGGDGSLTGANIFRSEWGSLLEELVAEGKISETTARTYSHLNIAGLVGSIDNDFCGTDMTIGTDSALHRIMEVIDAITTTAQSHQRTFVLEVMGRHCGYLALVSALASGADWLFIPEAPPEDGWENFMCERLGETRSRGSRLNIIIIAEGAIDRNGKPISSSYVKDLVVQRLGFDTRVTVLGHVQRGGTPSAFDRILSSKMGMEAVMALLEATPDTPACVVTLSGNQSVRLPLMECVQMTKEVQKAMDDKRFDEATQLRGGSFENNWNIYKLLAHQKPPKEKSNFSLAILNVGAPAAGMNAAVRSAVRTGISHGHTVYVVHDGFEGLAKGQVQEVGWHDVAGWLGRGGSMLGTKRTLPKGQLESIVENIRIYGIHALLVVGGFEAYEGVLQLVEARGRYEELCIVMCVIPATISNNVPGTDFSLGSDTAVNAAMESCDRIKQSASGTKRRVFIVETMGGYCGYLATVTGIAVGADAAYVFEDPFNIHDLKVNVEHMTEKMKTDIQRGLVLRNEKCHDYYTTEFLYNLYSSEGKGVFDCRTNVLGHLQQGGAPTPFDRNYGTKLGVKAMLWLSEKLREVYRKGRVFANAPDSACVIGLKKKAVAFSPVTELKKDTDFEHRMPREQWWLSLRLMLKMLAQYRISMAAYVSGELEHVTRRTLSMDKGF |  | decreases |  |  |  |  |  |  |  |  |  |  | 
phosphofructokinase 1 (PFK1): S529A (protein) parent chain: MAAVDLEKLRASGAGKAIGVLTSGGDAQGMNAAVRAVTRMGIYVGAKVFLIYEGYEGLVEGGENIKQANWLSVSNIIQLGGTIIGSARCKAFTTREGRRAAAYNLVQHGITNLCVIGGDGSLTGANIFRSEWGSLLEELVAEGKISETTARTYSHLNIAGLVGSIDNDFCGTDMTIGTDSALHRIMEVIDAITTTAQSHQRTFVLEVMGRHCGYLALVSALASGADWLFIPEAPPEDGWENFMCERLGETRSRGSRLNIIIIAEGAIDRNGKPISSSYVKDLVVQRLGFDTRVTVLGHVQRGGTPSAFDRILSSKMGMEAVMALLEATPDTPACVVTLSGNQSVRLPLMECVQMTKEVQKAMDDKRFDEATQLRGGSFENNWNIYKLLAHQKPPKEKSNFSLAILNVGAPAAGMNAAVRSAVRTGISHGHTVYVVHDGFEGLAKGQVQEVGWHDVAGWLGRGGSMLGTKRTLPKGQLESIVENIRIYGIHALLVVGGFEAYEGVLQLVEARGRYEELCIVMCVIPATISNNVPGTDFSLGSDTAVNAAMESCDRIKQSASGTKRRVFIVETMGGYCGYLATVTGIAVGADAAYVFEDPFNIHDLKVNVEHMTEKMKTDIQRGLVLRNEKCHDYYTTEFLYNLYSSEGKGVFDCRTNVLGHLQQGGAPTPFDRNYGTKLGVKAMLWLSEKLREVYRKGRVFANAPDSACVIGLKKKAVAFSPVTELKKDTDFEHRMPREQWWLSLRLMLKMLAQYRISMAAYVSGELEHVTRRTLSMDKGF |  |  | abolishes | decreases | decreases | abolishes | decreases | abolishes | decreases | abolishes | abolishes | abolishes | abolishes
